Source: patent publication US20090156485A1
Values belong to the binder of their own block, whether it stands above or below them.

What was measured:
[1] = biological target: human hair (hair keratin) (human); assay: quantitative hair binding test, after 10% strength SDS treatment
[2] = biological target: human hair (hair keratin) (human); assay: quantitative hair binding test, anti-polyHis peroxidase conjugate, TMB
[3] = biological target: human skin (skin keratin) (human); assay: quantitative skin binding test on human keratinocytes, after 10% strength SDS treatment
[4] = biological target: human skin (skin keratin) (human); assay: quantitative skin binding test on human keratinocytes in microtiter plates, anti-His antibody, TMB

- Absorption at 405 nm (A405 nm (standardized to the surface)) [1]: 0.62
- Absorption at 405 nm (A405 nm (standardized to the surface)) [2]: 0.88
- Absorption at 405 nm (A405 nm (standardized to the surface)) [3]: 3.15
- Absorption at 405 nm (A405 nm (standardized to the surface)) [4]: 3.69
B1: KBD-D (keratin-binding domain of human plakophilin, SEQ ID No.: 168) (protein)
chain: MRGSHHHHHHGSACELGTMNHSPLKTALAYECFQDQDNSTLALPSDQKMKTGTSGRQRVQEQVMMTVKRQKSKSSQSSTLSHSNRGSMYDGLADNYNYGTTSRSSYYSKFQAGNGSWGYPIYNGTLKREPDNRRFSSYSQMENWSRHYPRGSCNTTGAGSDICFMQKIKASRSEPDLYCDPRGTLRKGTLGSKGQKTTQNRYSFYSTCSGQKAIKKCPVRPPSCASKQDPVYIPPISCNKDLSFGHSRASSKICSEDIECSGLTIPKAVQYLSSQDEKYQAIGAYYIQHTCFQDESAKQQVYQLGGICKLVDLLRSPNQNVQQAAAGALRNLVFRSTTNKLETRRQNGIREAVSLLRRTGNAEIQKQLTGLLWNLSSTDELKEELIADALPVLADRVIIPFSGWCDGNSNMSREVVDPEVFFNATGCLRNLSSADAGRQTMRNYSGLIDSLMAYVQNCVAASRCDDKSVENCMCVLHNLSYRLDAEVPTRYRQLEYNARNAYTEKSSTGCFSNKSDKMMNNNYDCPLPEEETNPKGSGWLYHSDAIRTYLNLMGKSKKDATLEACAGALQNLTASKGLMSSGMSQLIGLKEKGLPQIARLLQSGNSDVVRSGASLLSNMSRHPLLHRVMGNQVFPEVTRLLTSHTGNTSNSEDILSSACYTVRNLMASQPQLAKQYFSSSMLNNIINLCRSSASPKAAEAARLLLSDMWSSKELQGVLRQQGFDRNMLGTLAGANSLRNFTSRF

- Absorption at 405 nm (A405 nm (standardized to the surface)) [3]: 0.185
- Absorption at 405 nm (A405 nm (standardized to the surface)) [4]: 0.93
B2: KBD-B (keratin-binding domain B of human desmoplakin, SEQ ID No.: 166) (protein)
chain: MRGSHHHHHHGSACELEPHTGLLLLSVQKRSMSFQGIRQPVTVTELVDSGILRPSTVNELESGQISYDEVGERIKDFLQGSSCIAGIYNETTKQKLGIYEAMKIGLVRPGTALELLEAQAATGFIVDPVSNLRLPVEEAYKRGLVGIEFKEKLLSAERAVTGYNDPETGNIISLFQAMNKELIEKGHGIRLLEAQIATGGIIDPKESHRLPVDIAYKRGYFNEELSEILSDPSDDTKGFFDPNTEENLTYLQLKERCIKDEETGLCLLPLKEKKKQVQTSQKNTLRKRRVVIVDPETNKEMSVQEGVDLQPSLIS
